Article doi:10.1101/2024.05.10.593077
Where “and” joins values, the source holds several entries; their conditions need not be identical. Equal values may be shown once.

Tests used:
Human FcγRI (WT) (human) [1] = molecular target: Human FcγRI (WT) (human) (UniProt P12314); experiment: SPR
[2] = molecular target: Trastuzumab ΔP230 (IgG1 with deletion of Pro230 in the lower hinge) (human); experiment: SEC
Human FcγRI (WT) (human) [3] = molecular target: Human FcγRI (WT) (human) (UniProt P12314); experiment: high-speed atomic force microscopy

Sequence of UniProt P12314 (P12314 16-292): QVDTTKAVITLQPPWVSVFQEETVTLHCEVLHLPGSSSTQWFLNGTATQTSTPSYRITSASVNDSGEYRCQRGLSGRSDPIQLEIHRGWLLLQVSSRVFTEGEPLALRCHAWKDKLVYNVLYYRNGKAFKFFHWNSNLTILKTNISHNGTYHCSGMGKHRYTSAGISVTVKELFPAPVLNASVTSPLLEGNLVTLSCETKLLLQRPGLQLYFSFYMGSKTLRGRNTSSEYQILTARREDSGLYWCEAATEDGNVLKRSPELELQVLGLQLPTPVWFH

Row | Kd (Human FcγRI (WT) (human) [1]) [nM] | ratio monomer:dimer (monomer:dimer) [2] | stoichiometry N (ΔP230:FcγRI (mol:mol)) (Human FcγRI (WT) (human) [3]) | stoichiometry N (IgG1 WT:FcγRI) (Human FcγRI (WT) (human) [3]) | Substance
1 | 0.92 | – | – | – | Trastuzumab CSCS (IgG1 with the double substitution Cys226Ser and Cys229Ser) (antibody)
2 | 23.5 | 6 | 1 and 2 | – | Trastuzumab ΔP230 (IgG1 with deletion of Pro230 in the lower hinge) (antibody)
3 | 0.89 | – | – | 1 | Trastuzumab WT, anti-HER2 humanized IgG1 (antibody)
